Data published in PMC11005723, “Development of Complementary Photo‐arginine/lysine to Promote Discovery of Arg/Lys hPTMs Interactomes” (Advanced Science, 2024).
Non-standard residues stand in square brackets, D forms with d. No end group written: not given here. Arg(Me2a) = CN(C)C(=N)NCCC[C@H](N)C(=O)O

Columns and labels:
Experiment in all cases: ITC; 25 °C, MicroCal PEAQ-ITC; protein in the cell titrated with 19 injections of peptide
Settings in all cases: both partners purified
RBBP4 (1‐ 425) = target: T1, RBBP4 (1‐ 425) (UniProt Q09028 1-425)
T1 construct: RBBP4 residues 1-425; source: Sf9 (baculovirus), purified (Ni-NTA, Resource Q, Superdex 75)
T1 sequence (Q09028 whole entry, the tested form may be a part): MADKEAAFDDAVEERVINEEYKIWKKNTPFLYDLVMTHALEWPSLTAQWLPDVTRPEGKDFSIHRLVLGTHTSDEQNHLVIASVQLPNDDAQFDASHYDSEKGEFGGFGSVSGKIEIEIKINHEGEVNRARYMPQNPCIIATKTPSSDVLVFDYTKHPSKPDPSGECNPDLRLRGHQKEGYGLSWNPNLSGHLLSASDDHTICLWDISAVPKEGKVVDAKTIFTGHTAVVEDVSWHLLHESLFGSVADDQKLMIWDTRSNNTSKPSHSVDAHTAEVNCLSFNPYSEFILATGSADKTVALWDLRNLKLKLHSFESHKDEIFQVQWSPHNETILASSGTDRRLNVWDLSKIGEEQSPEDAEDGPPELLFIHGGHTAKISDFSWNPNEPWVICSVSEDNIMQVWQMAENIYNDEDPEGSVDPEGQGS

RBBP7 (1‐ 425) = target: T2, RBBP7 (1‐ 425) (UniProt Q16576 1-425)
T2 construct: RBBP7 residues 1-425; source: Sf9 (baculovirus), purified (Ni-NTA, Resource Q, Superdex 75)
T2 sequence (Q16576 whole entry, the tested form may be a part): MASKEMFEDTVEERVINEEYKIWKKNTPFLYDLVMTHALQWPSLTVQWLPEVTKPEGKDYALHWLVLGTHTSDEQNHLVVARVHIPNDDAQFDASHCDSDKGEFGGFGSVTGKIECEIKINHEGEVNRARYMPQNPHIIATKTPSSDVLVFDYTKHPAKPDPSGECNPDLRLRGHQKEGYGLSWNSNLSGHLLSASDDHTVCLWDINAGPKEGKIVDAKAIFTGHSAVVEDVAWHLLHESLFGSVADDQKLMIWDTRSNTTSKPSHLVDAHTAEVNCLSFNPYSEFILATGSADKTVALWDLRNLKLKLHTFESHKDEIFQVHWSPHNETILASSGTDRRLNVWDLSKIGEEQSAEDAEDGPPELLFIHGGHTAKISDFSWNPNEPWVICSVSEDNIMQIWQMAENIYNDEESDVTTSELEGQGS

[1] = target: T3, PHD domain of UHRF1 (UHRF1PHD) (structural Zn2+ ions bound; limits are not given, so they follow the usual UHRF1 PHD structural constructs (about 298-366), which include the N-terminal pre-PHD zinc site; the UniProt PHD-type featu)
T3 chain: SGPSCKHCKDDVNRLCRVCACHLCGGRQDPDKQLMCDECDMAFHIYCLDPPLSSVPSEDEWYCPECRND

B1: native H3R2me2a peptide (H3_(1‐15) without diazirine and biotin) (peptide)
peptide: A[Arg(Me2a)]TKQTARKSTGGKA-NH2
notes: Rink amide resin was used for all peptides, so the C-terminus is probably an amide; source: synthetic peptide (Fmoc solid-phase synthesis)
RBBP4 (1‐ 425)
  Kd: ~1200 nM
RBBP7 (1‐ 425)
  Kd: 15400 nM

B2: native H3R2 peptide (H3_(1‐15) without diazirine and biotin) (peptide)
peptide: ARTKQTARKSTGGKA-NH2
notes: Rink amide resin was used for all peptides, so the C-terminus is probably an amide; also called native H3_(1‐15) peptide; source: synthetic peptide (Fmoc solid-phase synthesis)
[1]
  Kd: 2300 nM
